Legend:
[1] = biological target: T1, duckweed-produced human microplasminogen
T1 chain: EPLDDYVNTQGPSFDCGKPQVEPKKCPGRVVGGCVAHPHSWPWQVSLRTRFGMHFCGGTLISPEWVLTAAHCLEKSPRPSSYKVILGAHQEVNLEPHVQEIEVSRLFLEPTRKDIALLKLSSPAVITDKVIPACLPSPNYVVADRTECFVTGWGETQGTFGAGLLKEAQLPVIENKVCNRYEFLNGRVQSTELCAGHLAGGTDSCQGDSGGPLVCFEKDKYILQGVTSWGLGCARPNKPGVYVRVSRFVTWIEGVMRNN

streptokinase, P00779 = biological target: T2, streptokinase, P00779
T2 chain: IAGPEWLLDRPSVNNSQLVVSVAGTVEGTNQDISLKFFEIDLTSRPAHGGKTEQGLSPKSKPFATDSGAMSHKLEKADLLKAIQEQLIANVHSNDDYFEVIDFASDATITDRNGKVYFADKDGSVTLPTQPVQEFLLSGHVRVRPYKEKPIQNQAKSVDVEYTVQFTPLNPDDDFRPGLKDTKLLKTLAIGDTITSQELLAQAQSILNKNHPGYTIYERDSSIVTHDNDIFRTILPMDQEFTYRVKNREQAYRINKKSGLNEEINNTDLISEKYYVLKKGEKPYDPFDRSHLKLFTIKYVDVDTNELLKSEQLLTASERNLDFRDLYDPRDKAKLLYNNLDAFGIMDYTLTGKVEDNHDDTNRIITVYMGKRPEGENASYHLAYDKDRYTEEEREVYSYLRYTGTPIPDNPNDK

B1: tissue plasminogen activator (protein)
chain: SYQVICRDEKTQMIYQQHQSWLRPVLRSNRVEYCWCNSGRAQCHSVPVKSCSEPRCFNGGTCQQALYFSDFVCQCPEGFAGKCCEIDTRATCYEDQGISYRGTWSTAESGAECTNWNSSALAQKPYSGRRPDAIRLGLGNHNYCRNPDRDSKPWCYVFKAGKYSSEFCSTPACSEGNSDCYFGNGSAYRGTHSLTESGASCLPWNSMILIGKVYTAQNPSAQALGLGKHNYCRNPDGDAKPWCHVLKNRRLTWEYCDVPSCSTCGLRQYSQPQFRIKGGLFADIASHPWQAAIFAKHRRSPGERFLCGGILISSCWILSAAHCFQERFPPHHLTVILGRTYRVVPGEEEQKFEVEKYIVHKEFDDDTYDNDIALLQLKSDSSRCAQESSVVRTVCLPPADLQLPDWTECELSGYGKHEALSPFYSERLKEAHVRLYPSSRCTSQHLLNRTVTDNMLCAGDTRSGGPQANLHDACQGDSGGPLVCLNDGRMTLVGIISWGLGCGQKDVPGVYTKVTNYLDWIRDNMRP
- Western blot: production of the B chain of plasmin [1]: Western blot analysis confirmed the production of the B chain of plasmin following activation of duckweed-produced microplasminogen with either urokinase or tPA

B2: duckweed-produced human plasminogen (protein)
chain: KVYLSECKTGNGKNYRGTMSKTKNGITCQKWSSTSPHRPRFSPATHPSEGLEENYCRNPDNDPQGPWCYTTDPEKRYDYCDILECEEECMHCSGENYDGKISKTMSGLECQAWDSQSPHAHGYIPSKFPNKNLKKNYCRNPDRELRPWCFTTDPNKRWELCDIPRCTTPPPSSGPTYQCLKGTGENYRGNVAVTVSGHTCQHWSAQTPHTHNRTPENFPCKNLDENYCRNPDGKRAPWCHTTNSQVRWEYCKIPSCDSSPVSTEQLAPTAPPELTPVVQDCYHGDGQSYRGTSSTTTTGKKCQSWSSMTPHRHQKTPENYPNAGLTMNYCRNPDADKGPWCFTTDPSVRWEYCNLKKCSGTEASVVAPPPVVLLPDVETPSEEDCMFGNGKGYRGKRATTVTGTPCQDWAAQEPHRHSIFTPETNPRAGLEKNYCRNPDGDVGGPWCYTTNPRKLYDYCDVPQCAAPSFDCGKPQVEPKKCPGRVVGGCVAHPHSWPWQVSLRTRFGMHFCGGTLISPEWVLTAAHCLEKSPRPSSYKVILGAHQEVNLEPHVQEIEVSRLFLEPTRKDIALLKLSSPAVITDKVIPACLPSPNYVVADRTECFVTGWGETQGTFGAGLLKEAQLPVIENKVCNRYEFLNGRVQSTELCAGHLAGGTDSCQGDSGGPLVCFEKDKYILQGVTSWGLGCARPNKPGVYVRVSRFVTWIEGVMRNN
- cleavage of the chromogenic substrate Glu-Phe-Lys-pNA at 405 nm (streptokinase, P00779): For each of the seven transgenic lines tested, the activity level was closely correlated with the protein expression levels as determined by ELISA
- streptokinase activity assay (cleavage of a chromogenic substrate, Coamatic plasminogen kit) (streptokinase, P00779): Activation with streptokinase also produced activated plasminogen

B3: duckweed-produced human microplasminogen (protein)
chain: EPLDDYVNTQGPSFDCGKPQVEPKKCPGRVVGGCVAHPHSWPWQVSLRTRFGMHFCGGTLISPEWVLTAAHCLEKSPRPSSYKVILGAHQEVNLEPHVQEIEVSRLFLEPTRKDIALLKLSSPAVITDKVIPACLPSPNYVVADRTECFVTGWGETQGTFGAGLLKEAQLPVIENKVCNRYEFLNGRVQSTELCAGHLAGGTDSCQGDSGGPLVCFEKDKYILQGVTSWGLGCARPNKPGVYVRVSRFVTWIEGVMRNN
- activity following activation by streptokinase (chromogenic substrate assay as for plasminogen) (streptokinase, P00779): The duckweed-produced microplasminogen showed some level of activity in the absence of streptokinase, and a significant increase in activity following activation by streptokinase
